Test results: patent US5968526A, “T cell epitopes of the major allergens from Dermatophagoides (house dust mite)” (Immulogic Pharamaceutical Corporation, priority 1995, dated 1999)

Tests used:
human IgE = experiment: direct binding ELISA of IgE to mite allergen proteins and peptides; conditions: for IgE reactivity, candidate peptides: data not shown; for IgE binding (ELISA), modified peptides: plasma of 19 mite-allergic patients and pool of 18, Example XV
pH-solubility profile = format: physicochemical; conditions: for solubility: at a pH in the range pH 6 to pH 8; for solubility (in words): aqueous buffer, superior solubility = >3 mg/ml at pH 6-8
Procedure: (§1) 50 mM sodium phosphate stock solutions:
(§2) Stock solution A: 0.66 g […] of monobasic sodium phosphate monohydrate U.S.P. and 50 mg EDTA disodium dihydrate, U.S.P. were dissolved in 100 mL of WFI. The solution was filtered through a 0.2 micron filter
(§3) Stock solution B: 0.71 g […] of dibasic sodium phosphate U.S.P. were disolved in 100 ml WFI. The solution was filtered through a 0.2 micron filter.
(§4) 2. Initial peptide dispersions
(§5) Dispersion A: 3.0 mg of each candidate peptide,DPI-21.2 (SEQ. ID. NO. 28), DFI-22.2 (SEQ. ID. NO. 93), DFI-23.31(SEQ. ID. NO. 165), DFI-26.6 (SEQ. ID. NO. 168), DPII-20.9 (SEQ. ID. NO. 169), DPII-22.14 (SEQ. ID. NO. 180) and DPII-25.15 (SEQ. ID. NO. 188), was weighed out separately and placed in separate 1.5 mL eppendoff vials with 600 μL of stock solution A. The composition was agitated for 1 seconds to mix well.
as §5, with “Dispersion B:” for “Dispersion A:”, “each peptide, DPI-21.2” for “each candidate peptide,DPI-21.2”, “solution B.” for “solution A.”, “The mixture” for “The composition”, “for 5” for “for 1”
(§6) Dispersions A and B were sonicated for 2 minutes for good homogeneity. A small volume was pipetted from each dispersion into a labeled eppendoff vial according to the following volume ratio:
(§7) The resultant solutions/suspensions were stored in the dark at about 22° C.±2 for 24 hours without agitation. The solutions were filtered and filtrates were analyzed for pH and peptide concentration.
(§8) The concentration of filtered peptide solutions was determined by HPLC analysis. In this experiment, the solubility of peptide at each pH is defined as the amount of peptide remaining in solution after filtration through a membrane filter having a 0.2 micrometer pore size. The extent of degradation of peptides was estimated by calculating the percent of total degradant peak area over the total peak area.
The pH values with respect to the solubility values was plotted and are shown in FIG. 37 for each respective peptide. As shown in the solubility curve for each peptide as represented in FIG. 37, peptides DPI-21.2 (SEQ. ID. NO. 28), DFI-22.2 (SEQ. ID. NO. 93), DFI-23.31 (SEQ. ID. NO. 165), DFI-26.6 (SEQ. ID. NO. 168), DPII-20.9 (SEQ. ID. NO. 169), DPII-22.14 (SEQ. ID. NO. 180) and DPII-25.15 (SEQ. ID. NO. 188) are each soluble at greater than 3 mg/ml at a pH in the pH range of pH 6 to pH 8.

mast cells or basophils = experiment: histamine release; format: cell-based, human; conditions: data not shown
Procedure: To determine whether a peptide which binds IgE results in the release of mediators, a histamine release assay can be performed using standard reagents and protocols obtained for example, from Amac, Inc. (Westbrook, Me.). Briefly, a buffered solution of a peptide to be tested is combined with an equal volume of whole heparinized blood from an allergic subject. After mixing and incubation, the cells are pelleted and the supernatants are processed and analyzed using a radioimmunoassay to determine the amount of histamine released.

[1] = pH-stability profile / solution stability (HPLC); format: physicochemical; conditions: pH 6 to pH 8
Procedure: as §1, §2, §3, §4, §5
as §5, with “Dispersion B:” for “Dispersion A:”, “each peptide, DPI-21.2” for “each candidate peptide,DPI-21.2”, “solution B.” for “solution A.”, “The mixture” for “The composition”, “for 5” for “for 1”
as §6, §7, §8
The pH-stability profiles for each peptide DPI-21.2 (SEQ. ID. NO. 28), DFI-22.2 (SEQ. ID. NO. 93), DFI-23.31(SEQ. ID. NO. 165), DFI-26.6 (SEQ. ID. NO. 168), DPII-20.9 (SEQ. ID. NO. 169), DPII-22.14 (SEQ. ID. NO. 180) and DPII-25.15 (SEQ. ID. NO. 188) in equal concentration combination at 3, 2, and 1 mg/ml per peptide and prepared in duplicate as described above with one set stored at about 5° C. for 24 hours and one set stored at about 22° C.±2 for 24 hours, were calculated and tabulated as a function of the percentage of total of degradant peak area (FIG. 38).

## DP I-23.31: modified Der p I peptide; unique peptide (DEEGVVQESYYRYVAREQSCRRPNAE)
Human IgE
  IgE reactivity, candidate peptides: negative
  IgE binding (ELISA), modified peptides: No plasma samples contained IgE
pH-solubility profile
  solubility: greater than 3 mg/ml
Mast cells or basophils
  histamine release: negative
[1]
  stability (in words): acceptable solution stability

## DP I-26.6: modified Der p I peptide; unique peptide (DEGIKDLDAFRHYDGRTIIQRDNGYE)
Human IgE
  IgE reactivity, candidate peptides: negative
pH-solubility profile
  solubility: greater than 3 mg/ml
Mast cells or basophils
  histamine release: negative
[1]
  stability (in words): acceptable solution stability

## DP II-22: QLEAVFEANQNTKTAKIEIKASIDGLEV
pH-solubility profile
  solubility (in words): did not meet the "superior solubility" requirement of 3 mg/ml
[1]
  stability (in words): stable
[1]; listed as SEQ. ID. NO. 207
  stability (in words): nor did it meet the stability requirement

## DP I-21.2: Der p I peptide; unique peptide (SINGNAPAEIDLRQMRTVTPIRMQ)
Human IgE
  IgE reactivity, candidate peptides: negative
pH-solubility profile
  solubility: greater than 3 mg/ml
Mast cells or basophils
  histamine release: negative
[1]
  stability (in words): acceptable solution stability

## DP II-22.14: DKELEAVFEANQNTKTAKAE; unique peptide
Human IgE
  IgE reactivity, candidate peptides: negative
  IgE binding (ELISA), modified peptides: No plasma samples contained IgE
pH-solubility profile
  solubility (in words): increased by an order of magnitude
  solubility: greater than 3 mg/ml
Mast cells or basophils
  histamine release: negative
[1]
  stability (in words): acceptable solution stability

## DP II-20.9: modified Der p II peptide; unique peptide (DQVDVKDCANHEIKKVLVPGCHGSE)
Human IgE
  IgE reactivity, candidate peptides: negative
  IgE binding (ELISA), modified peptides: No plasma samples contained IgE
pH-solubility profile
  solubility: greater than 3 mg/ml
Mast cells or basophils
  histamine release: negative
[1]
  stability (in words): acceptable solution stability

## DF I-22.2: VAATESAYLAYRNTSLDLSEQELVD, amino acid residues 40-64 of Der f I
Human IgE
  IgE reactivity, candidate peptides: negative
pH-solubility profile
  solubility: greater than 3 mg/ml
Mast cells or basophils
  histamine release: negative
[1]
  stability (in words): acceptable solution stability
